Reference: publication PMC11446014, “Human IL-22 receptor-targeted small protein antagonist suppress murine DSS-induced colitis” (Cell Communication and Signaling : CCS, 2024)

Columns and labels:
Details in all cases: both partners purified
[1] = biological target: T1, recombinant human IL-22R1 (rhIL-22 Rα1) (human, UniProt Q8N6P7 16-228); assay: ELISA; receptor (IL-22R1 or IL-22R1-IgG Fc) coated on MaxiSorp plate; serially diluted IL-22 (Fc chimera or His tag); detection by mouse anti-human IgG (Fc)-HRP or anti-His monoclonal antibody-HRP; BSA wells as control
T1 construct: recombinant human IL-22 receptor alpha (rhIL-22 Rα1); also called commercial IL-22R1; source: bought: R&D Systems
T1 sequence (looked up): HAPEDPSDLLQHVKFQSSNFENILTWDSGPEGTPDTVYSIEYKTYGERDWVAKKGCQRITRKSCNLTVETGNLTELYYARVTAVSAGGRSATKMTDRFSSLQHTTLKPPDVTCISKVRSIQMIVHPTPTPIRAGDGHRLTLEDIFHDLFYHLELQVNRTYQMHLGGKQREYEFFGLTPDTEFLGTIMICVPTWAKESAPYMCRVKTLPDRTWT

[2] = biological target: T2, recombinant human IL-22R1 (rhIL-22 Rα1) (human, UniProt Q8N6P7 16-228); assay: ELISA; IL-22 on IL-22R1 coated on a MaxiSorp 96-well plate (Fig. S1)
T2 construct: human interleukin-22 receptor alpha (IL-22R1), recombinant soluble protein; Probably the extracellular part; also called IL-22 receptor alpha; commercial IL-22R1; source: bought: R&D Systems
T2 sequence (looked up): T1 sequence (looked up)

[3] = biological target: T2, recombinant human IL-22R1 (rhIL-22 Rα1); assay: ELISA; competition: human IL-22R1 coated (1 µg/ml) on MaxiSorp; purified ABD-derived variants serially diluted in PBS-T with 1% BSA with 1 nM IL-22 Fc chimera; IL-22-Fc detected by anti-human IgG (Fc) HRP

B1: recombinant human IL-22 protein, Fc Chimera (Fc fusion, UniProt Q9GZX6 34-179, looked up)
chain: APISSHCRLDKSNFQQPYITNRTFMLAKEASLADNNTDVRLIGEKLFHGVSMSERCYLMKQVLNFTLEEVLFPQSDRFQPYMQEVVPFLARLSNRLSTCHIEGDDLHIQRNVQKLKDTVKKLGESGEIKAIGELDLLFMSLRNACI
notes: human interleukin-22 fused to human IgG Fc; also called IL-22-IgG Fc cytokine; IL-22 (Fc chimera); source: bought: Abcam
binding result [1]: binds

B2: human IL-22 (ligand, UniProt Q9GZX6 34-179, looked up)
chain: B1 chain
notes: human interleukin-22; it may be m16 or m17; also called hIL-22; IL-22 cytokine; source: bought: Abcam (cell assays)
binding result [2]: binds

B3: recombinant human IL-22 protein, Fc Chimera (Fc fusion, UniProt Q9GZX6 34-179, looked up)
chain: B1 chain
notes: human interleukin-22; also called IL-22-Fc; IL-22 cytokine; source: bought: Abcam
binding result [3]: binds
